Assay: label from the status in PepcDB records

Row | Sequence | protein production
1 | MHAKFLDTLDWGILIAYFLILIAIGIWASSKRKKGSSLFLAEHSLRWHHIGFSMWGTNVGPSMLIASASAGFTTGIVSGNYAWYAFVFICLLAFVFAPRYLGSRVSTLPEFMGKRFGQSTRNILAWYTIVTILISWLALTLFAGGVLIRQVFDIPMWQSALILLIISAFFTMLGGLKAVAYTNVYQMILLILVSAALAIVGIYKVGGISALTDAVPADFWNLFRPNDDTAFPWLPIILGYPVMGVWFWCTDQSMVQPVLAAKSLKEGQLGTNFTGWLKILDVPLYILPGIICLALFPQLENPDEAYMTMVTHLFPVGMVGLVLAVLTAALVSTIGSALNALSTVFTMDIYVKKIRPQAKQKEIIRVGQVVTVAGALISVIITIAIDSIHGLNLFNVFQSVLGFIAPPMAAVFLFGVFWKRTTTLAANAALTVGTVFSIGVGVLYLWVFPADQYSAWPHFMLLSFYLFVIIGIGMVVVGLLDKTPQTAILNMEKIEEKPARIVLILWGLLIVTMIGLYIFFNGH | failed
2 | DIAARRHTGVIPTHHQFITNERFGDLLNIDDTAKRKSGSEMRPARAKFDFKAQTLKELPLQKGDIVYIYKQIDQNWYEGEHHGRVGIFPRTYIELLPPAEKAQPKKLTPVQVLEYGEAIAKFNFNGDTQVEMSFRKGERITLLRQVDENWYEGRIPGTSRQGIFPITYVDVIKRPLVKNPVDYMDLPF | failed
3 | MSLGLDYEPSHLMFLVTVLDDRDGEVLGDAIQKLIEREEVLACHAVPCVTKKNRPGHVLVVLVDGGEDPDRVAEDVARDIMVLTGSTGVDRFDADGVYSVPSRFEDVRVVYGEREWRVSVKIAETEEGEVVTVKAEFDECREIGEETGIPPREVKAMVEAAARVGGWVDLKEREIKVQEGHHHHHH | not failed
4 | MGTHIKNQYISPPNTVYDCSIVKLPKIENRSGNITPIHSWVNIPFQIKRIFYSYDIPGGESRGAHAHKKCHQFLIAASGSFEVVLDDGISKRTVLLNRPFYGLHIPPGIWASEQGFSSGSVCLVLASHVYEEDDYLRDYQGFLNYKSQGIFEMFINVNGGGVSPKIFYLPFLFTKSKEEVA | failed
5 | MDTTFGLDLARVETLFKRELRRFDELHPRSAQAYRENRRHWLYGAPLHWMQQWPGNCPLLVKEAQGARVTDIDGQQYVDFALGDSGAMFGHAQPAVADAIARQARRGSTLMLPTEDSLWVGAELARRFGLPYWQVTTSATDANRFVLRLCRMLSGRDKVVVFNCNYHGSVDESQVEFDAAGRMVPRAGVHPNGVRHATTTRLVEFNDLDALEAALAHGDVAAVLTEPFMTNVGMVPPAEGFHAGLRELTRRHDVALIIDETHTISCGPAGYSGAHGLEPDFFVLGKCIAGGIPSAVWGCSQAQAERIWAVLPHFRPGQAINHFGFGGTLAGNALQLAAMRATFAEVMTEDAYRHMFQLAAQLEAGVRATLEELRLPWHVTRIGARVEYLFMTHAPRNGGEAHHARNGLIEACLHLYLLNRGVLLTPFHNMALTCPATRAEDVELHDRLLRDCLGELLERPS | failed
6 | MEIFFTILILTLVVSLSGVVTRILPFQVPLPLMQIALGAILAWPQFGLHVDFNPELFMVLFIPPLLFADGWKTPTREFLRHGREIIGLALVLVLITVVGIGYFIYWMVPGMPLIAAFALAAVLSPTDAVALSGIVGEGRIPKKLMGILQGEALMNDASGLVSLKFAVAIAMGTMVFTVSGATLEFVQVALGGLLAGVGVTWIFGKSLRVISRWSGDDAATQIVLLLLLPFASYLIAEHIGVSGILAAVAAGMTIGQSGVIRSAPLTMRMRANGVWSMLEFVFNGMVFIMLGLQLPDILETSVTQAELDPTVETWMLFTDIAIIYGALLLLRFSWLWVMRTYSVHIQKKRPMVFAEFSTRELWIASFAGVRGAITLAGVLSIPLLLTDGTAFPSRYQLVFIATGVILFSLLCGVLALPFLLRGVVVADKAAHAKEIRMARMAVAEVAIKSMHKMEERLAADREENIDEQVLKEVSARVIGNLRRRLINKDDPENGLLIENLERRFRLTALNSERAELYHLRATQQISNETLQKMLRDLDLMEALLIENE | failed
7 | MKKVFIPINTKIPVERQFPNRVPIWGNYEFIISTKEPEQEYDYVVVLDDIEYSLRLMCCKQNICLFTGEPPYVKLYPRKYLNQFGHVYTCQSSVLKRDNACLSYPALPWMLYYNFYNDKQKEELLIDYDFLKNRPTLQRKNKICLFTSNKKISKGHIERIKFALKLQEEMPDLIDIYGSGFTNVDYKYEVMVQYKYAIVIENCSYPYYWTEKLADTFLSGCYPIYFGDPHIGDFFSKEEMAVIDIRNFDESKQTIKKIIDNNVYEKQYENICHARDKILDKYNMFSLISSTLDSIPAKLDKEKLLLSPMRLSVFDRIRNRIYRLFYLEHHHHHH | failed
8 | MGFTTDKIRTIAVAGHGQSGKTSLVEHLLYVSGLIAKAESVDSGKTVTDYSQEEIDRKISIYSTLVNLQKDDKLINIWDTPGASDFIGEVIAAFRSSEAALIVLDGRSGVQIETIKYWRDLDRRNKPRLVFANKMDEARADFDNCIADVKKQFQVDVFPVSFPMGTGDNFKGVVDVLHGKAYKIEDGKEVETEIPAEYQDKYKDALEVLAGAAAEGDEELLVKFIDEGELSPEEISRGLTLAMADNRIVPLFAGSAINNSGLNSLLRFISEILPSPEGALERGVTKEGEEISVKLDSSAPLSAIVVKTSNDQFSGRLSYVKVITGTLSADSEVYNLREEKKERVGKIYKTLGKKLTEVKEIAAGDIGVLVKLTSTKTNDTLAASADVIPFVRLRTPEPIYSLAVSAIDKKNDDKVSEQLFKACEEDMTLSFAFNAETKQNVLSGMGDLHTSIVLDKVKNQSKIEIQTSIPRIAYRETIQRKSQAEYTHKKQSGGHGQFGRVVLAIEPLPRGEKYKFTNAVFGGAISKGYIPGVEKGVIEAMEKGVSAGYPVVDVAVTVLDGKEHPVDSSEMAFKIAARNAFKDAMRNAGPILLEPIMNLTVFVETSYLGDIMSDLSSRRGRILGQSSPASGIEEIRAQVPHKELLRYAIDLRSMTSGTGSFEMSFDHYDPISGKIADEIIAEAKAFMEEQEE | failed
9 | MNVINETANVLKLETGSVTSAKGFSAVGIHTGVKRKRKDLGAIVCEVPASSAAVYTLNKVQAAPLKVTQESIAVEGKLQAMIVNSGIANACTGKRGLDDAYTMRAVGAETFHIPEHYVAVTSTGVIGEFLPMDVITNGIRQLKPEATIEGAHAFNEAILTTDTVEKHTCYQTIVNGKTVTVGGVAKGSGMIHPNMATMLSFVTTDANIDHGHLQGALSAITNETFNRITVDGDTSTNDMVVVMASGLAENEALTPEHPDWANFYKALQLACEDLAKQIARDGEGATKLIEVEVTGAANDQEAGMVAKQIVGSDLVKTAIYGADANWGRIICAIGYSGCEVNQETIDIAIGPIVTLKQSEPTGFSEEEATAYLKEADPVKISVNLHIGNGTGKAWGCDLTYDYVRINAGYRT | not failed
10 | MAPLLSLCMIVKNEAHQLRRCLQSVQPWVDEIIIVDTGSTDGTIAIACEFTPHVHAVAWQGDFAAARNAALAQATGEWVFYIDADEELVVTDAHWQDQLTAPGAHAINQWSLLRREQSSDRNWSEFWNVRFGRRFPDLHFAGALHEQLCYREREAVVGELQGVYLIHHNQQSQEQFLAKIRDRNIPILETMVQQGDRRLQNLVCLGDHYAACGDSDRSQAWYEQALEEIASAVEQGILPRETTWLRHLLFWVSYRAFEAKDYETAQYYLSYGLRFFDRYPPLLYVAGLFVFELGLPRGALPYFHRCLDLFEAGSYDRTEPFDRQWMTTQPAYSLGYTYMTLQERDRAIAYFQKTLKFNPDYPPAQMYLEQLLRASANQGLEHHHHHH | failed
11 | MPQTSSLLGIDALYQFTGAGAQLFSGALFYTVIVRFFSASQVGAVALFIAIIGLFNLIFSFGLGTAVQHFASYHLGRQEYATAKSIVFKILILGIIFSSIGLITMFYLAKPISITFMHTAQYTPIVKLLSIVLVGDVLFGLLNGSALGLQLFRASGLMNIIIWITYYSTALVLAFLLKSLYYVVVGWSVGIFLGVILYLYLIIKSTKNYKGRPRHLTPSLLFQFSIPVLLSSIISYGATYIDRFIVAGLMTLSALGVYNFALLVASSIGFIVAPLNNIMLPKFSEFYGEGNRENIKNRTAIATTVVAGVYVPAALGVAVLSKMIITLLAGKYYEEGSDAISIIMVFSALFVTSNVMTQLIAAVRETRVFIYSSAASLASNAILSIILIPHFGIEGASIGFSSIYAASFFVLYKYAKKTGFYQANVYDLAKVWGSSLVMVFVVLAFEVRFGTSIDLLVPYILLGAVVYLGMIKSTRLIHRNEALFLSSLFPQSMPFITKLIRLISSE | failed
12 | MSGRGKVKSEPMKVVFINTQYVETDARSFKTVVQELTGKNAIVAAGPFDSPSAFDGRCYDGGSKIGEDTRQLHGGGGGGGRMGTTTEFDRLFKEMPHMEELYKLWSEY | failed
